# Tests used:
# [1] = target: T1, human PTH/PTHrP receptor (Homo sapiens, UniProt Q03431); test: Urokinase-type plasminogen activator (u-PA) secretion bioassay in LLC-PK1 cells expressing human PTHR; details: for secreted u-PA: peptide 1000 nM, 16 hr, mean±SEM
# T1 sequence (Q03431 27-593): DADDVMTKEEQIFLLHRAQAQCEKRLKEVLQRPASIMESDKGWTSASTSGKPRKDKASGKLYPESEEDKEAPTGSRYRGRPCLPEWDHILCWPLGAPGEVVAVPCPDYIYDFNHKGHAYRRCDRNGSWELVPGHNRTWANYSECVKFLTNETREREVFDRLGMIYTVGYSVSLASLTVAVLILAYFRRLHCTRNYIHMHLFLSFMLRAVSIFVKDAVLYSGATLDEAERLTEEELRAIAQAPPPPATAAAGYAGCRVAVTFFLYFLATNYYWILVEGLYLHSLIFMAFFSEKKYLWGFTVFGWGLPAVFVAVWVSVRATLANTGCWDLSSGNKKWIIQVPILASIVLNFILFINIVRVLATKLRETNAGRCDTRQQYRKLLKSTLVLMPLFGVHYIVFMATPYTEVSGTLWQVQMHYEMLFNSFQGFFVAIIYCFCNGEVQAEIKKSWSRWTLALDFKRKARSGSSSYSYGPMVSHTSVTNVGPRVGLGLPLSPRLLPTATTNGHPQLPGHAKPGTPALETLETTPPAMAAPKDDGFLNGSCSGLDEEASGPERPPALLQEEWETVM
# Procedure: Cells were seeded into 96-well plates at a density of 6×10^4 cells/well and used the following day. The cells were washed once with 0.2 ml and then refed with 0.1 ml of prewarmed DMEM containing 0.05% BSA. After adding each stimulator, plates were returned to the incubator at 37° C. for 16 h. Conditioned medium (5 ul) then was transferred from each well to a clean microplate. […] Activity was expressed in Ploug units/well, using purified human urokinase (Calbiochem) as a standard.
# Cells were incubated with the indicated peptides (1000 nM) for 16 hr before measurement of secreted u-PA present in the medium, which was expressed as a percentage of the activity measured in vehicle-treated controls. Values shown are means±SEM of triplicate determinations.
# [2] = target: T1, human PTH/PTHrP receptor; test: Cytosolic free calcium (fura-2) in LLC-PK1 cells expressing human PTHR; details: 100 nM peptide; HKRK B7 cells
# Procedure: Cytosolic free calcium was measured in fura 2AM-loaded confluent monolayers of cells.
# Cytosolic free calcium was measured by dual fluorescence in cells loaded with the Ca^2+-sensitive intracellular probe fura-2. Cells were seeded onto glass coverslips at a density of 40,000-600,000/cm^2 and incubated for 2 days as described above. Coverslips were washed twice with PBS before loading in phosphate-free Buffer B containing 4 uM of fura-2/AM (Molecular Probes, Eugene, Oreg.) for 30 min at room temperature (22° C.). After washing twice with fura-free Buffer B, the coverslips were mounted in a cuvette containing 2 ml of phosphate-free Buffer B at 37° C. and the emission at 510 nm in response to alternating excitation at 340 and 380 nm was monitored using a ratiometric PTI Deltascan fluorescence spectrometer with excitation and emission bandwidths of 2 nm. After achieving a stable baseline, agonists were introduced by exchange into 2 ml of fresh buffer to which 10-20 ul of concentrated agonist stock (or vehicle alone) had been added. Peptide stocks were prepared in 0.1% trifluoroacetic acid, ionomycin and phorbol esters were dissolved in dimethyl sulfoxide and all other additives were prepared in water. Maximum and minimum fluorescence signals were obtained by exposure to modified buffers containing 1 uM ionomycin plus 20 mM calcium or 2 mM EGTA in the nominal absence of calcium, respectively, and autofluorescence was estimated from signals obtained in the presence of ionomycin plus 2.5 mM MnCl2.
# [3] = target: T2, rat PTHR (Rattus norvegicus, UniProt P25961); test: Cellular cAMP accumulation in LLC-PK1 cells expressing rat PTHR; format: cell-based; details: EW5 cells
# T2 construct: expressed in transfected cells; host or cells: LLC-PK1 porcine renal epithelial cells (EW5; also EW29, AR-C38, AR-B44)
# T2 sequence (P25961 27-591): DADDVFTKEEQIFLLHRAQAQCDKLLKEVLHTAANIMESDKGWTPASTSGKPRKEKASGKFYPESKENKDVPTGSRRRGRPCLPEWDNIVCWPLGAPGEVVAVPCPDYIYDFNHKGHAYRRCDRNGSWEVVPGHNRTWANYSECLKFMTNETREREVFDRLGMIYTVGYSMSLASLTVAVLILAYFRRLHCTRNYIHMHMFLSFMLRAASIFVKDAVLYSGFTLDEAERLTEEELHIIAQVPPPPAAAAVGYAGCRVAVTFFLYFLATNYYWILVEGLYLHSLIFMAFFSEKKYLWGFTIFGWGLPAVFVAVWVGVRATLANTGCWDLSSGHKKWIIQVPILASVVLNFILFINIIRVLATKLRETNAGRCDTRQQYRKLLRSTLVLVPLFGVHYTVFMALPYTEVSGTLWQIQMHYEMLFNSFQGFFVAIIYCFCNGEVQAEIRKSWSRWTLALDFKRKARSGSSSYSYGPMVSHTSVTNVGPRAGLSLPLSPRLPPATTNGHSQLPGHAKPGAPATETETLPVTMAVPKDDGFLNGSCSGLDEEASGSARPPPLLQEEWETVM
# Procedure: FIG. 10. Stimulation of cyclic AMP accumulation by hPTH(1-31) and hPTH(1-34) in LLC-PK1 cells that express rat PTHRs. Cyclic AMP accumulation was measured in response to hPTH(1-34) (●) or hPTH(1-31) (Δ) in EW5 cells that expressed 320,000 rat PTHRs per cell. Results are expressed as fold basal.
# Cells were seeded into 24-well plates at a density of 2.5×10^5 cells/well and cultured for a further 2 days before study. The cells were rinsed once with 0.5 ml of ice-cold Buffer B [10 mM HEPES (pH 7.4), 130 mM NaCl, 5 mM KCl, 1.2 mM CaCl2, 1 mM MgCl2, 1.2 mM Na2HPO^4 5 mM glucose, and 0.1% heat-inactivated BSA] supplemented with 1 mM isobtylmethylxanthine (IBMX), and placed on ice. Treatments were added to each well in 0.25 ml of IBMX-supplemented Buffer B, after which the plates were incubated at 37° C. for 15 min. The buffer then was rapidly aspirated, the plates were rapidly transferred onto liquid nitrogen, and the frozen monolayers were subsequently thawed directly into 0.5 ml of 50 mM HCl. The extracted cAMP then was measured using a commercial RIA kit (Dupont-New England Nuclear, Boston, Mass.). Results were expressed as fold-basal, where basal levels ranged between 38 and 128 pmol/mg protein/15 min. The basal level of cAMP accumulation in native LLC-PK1 cells was not consistently altered in subclones that expressed wild type PTH/PTHrp receptors.
# [4] = target: T2, rat PTHR; test: Cellular phosphate uptake in LLC-PK1 cells expressing rat PTHR; format: cell-based
# Procedure: Cells were seeded into 24-well plates at a density of 2.5×10^5 cells/well and cultured for a further 2 days before study. Twenty four hours before assay, cells were refed with 0.5 ml of DMEM containing 0.1% BSA. The next day, cells were refed with serum-free medium (DMEM+0.1% BSA) containing drugs or peptides, and the incubations were continued at 37° C. under 5% CO2 in air for another 6 hr. Cells then were washed with prewarmed Buffer B without BSA and Na2HPO4 and then were incubated at 37° C. for 5 min in 0.25 ml of the same buffer containing [^32P]orthophosphate (4 uCi/ml) and 0.1 mM Na2HPO4. Phosphate uptake was arrested by adding 1 ml of ice-cold sodium-free “stop buffer” [10 mM HEPES (pH 7.4), 140 mM choline chloride, and 5 mM sodium arsenate], followed by two further washes with same buffer. The drained cell layer then was solubilized in 0.5 ml of Lysis Buffer, and cell-associated radioactivity was determined by Cerenkov counting, as previously described (Guo, J., et al., Endocrinology 136:3884-3891 (1995)).
# Responses to hPTH(1-34) or hPTH(1-31) (1000 nM) were measured in EW5 cells, which express 320,000 rat PTHRs per cell. Each value is the mean±SEM of a representative experiment performed in triplicate. Similar results were obtained in at least 3 individual experiments. […]
substance,measurement,setting,value
hPTH(1-31),u-PA bioassay activity (in words),[1]; HKRK B7 and HKRK B28 cells,fully active
same,maximal activation of u-PA secretion compared with hPTH(1-34),[1]; HKRK B7 cells and AB45 cells,identical to that of hPTH(1-34)
same,secreted u-PA,[1]; HKRK B7 cells,101 ± 9 percentage of the activity measured in vehicle-treated controls
same,secreted u-PA,[1]; HKRK B28 cells,101 ± 6 percentage of the activity measured in vehicle-treated controls
same,cytosolic free calcium transients,[2],fully activated cytosolic free calcium transients
same,activation of AC (in words),[3],activated AC equivalently
same,stimulation of phosphate uptake (in words),[4]; EW5 cells,identical
same,Phosphate uptake,"[4]; EW5 cells, 320,000 rat PTHRs per cell, peptide 1000 nM, mean±SEM",134 ± 3 % of basal

# — patent US7033773B1, “Screening assays for G protein coupled receptor agonists and antagonists” (The General Hospital Corporation, priority 1997, dated 2006)
